Series [1] addresses Zas1 (recombinant, from the short zas1 cDNA ORF) (S. pombe). The series is described as follows: SEC-MALS; analytical SEC coupled to multiangle light scattering of purified Zas1; two independent chromatography runs. (SEC sorts molecules by how far they enter the pores of the column.)
Series [2] deals with T1, Zas1 (short cDNA ORF, two zinc fingers) (Schizosaccharomyces pombe, UniProt Q9UTS5-2 1-845).
T1 sequence: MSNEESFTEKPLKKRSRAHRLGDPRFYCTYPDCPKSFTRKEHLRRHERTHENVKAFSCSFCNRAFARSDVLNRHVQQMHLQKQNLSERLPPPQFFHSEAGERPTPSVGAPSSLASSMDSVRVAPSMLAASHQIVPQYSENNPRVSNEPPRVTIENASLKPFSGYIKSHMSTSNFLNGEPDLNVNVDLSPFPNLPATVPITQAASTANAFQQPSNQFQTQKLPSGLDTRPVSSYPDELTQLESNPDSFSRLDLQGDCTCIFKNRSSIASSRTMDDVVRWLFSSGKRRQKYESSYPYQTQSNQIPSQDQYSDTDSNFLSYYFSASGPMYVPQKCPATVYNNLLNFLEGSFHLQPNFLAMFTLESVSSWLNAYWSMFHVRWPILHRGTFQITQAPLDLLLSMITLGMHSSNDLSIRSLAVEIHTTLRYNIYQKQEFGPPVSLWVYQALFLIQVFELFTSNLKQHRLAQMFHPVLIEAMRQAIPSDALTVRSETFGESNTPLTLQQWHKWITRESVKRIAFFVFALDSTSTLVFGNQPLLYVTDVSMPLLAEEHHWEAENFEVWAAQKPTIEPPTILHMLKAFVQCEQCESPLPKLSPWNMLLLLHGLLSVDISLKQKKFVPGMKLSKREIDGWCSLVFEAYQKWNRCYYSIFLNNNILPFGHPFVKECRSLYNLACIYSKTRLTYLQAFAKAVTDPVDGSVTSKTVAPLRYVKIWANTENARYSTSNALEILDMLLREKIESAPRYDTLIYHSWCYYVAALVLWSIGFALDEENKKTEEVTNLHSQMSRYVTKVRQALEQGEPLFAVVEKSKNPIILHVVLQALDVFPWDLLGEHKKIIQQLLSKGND
The series is described as follows: EMSA; 20 uM ZnCl2, 5 mM MgCl2; EMSA: 10 mM Tris-HCl pH 8.0, 125 mM NaCl, 5 mM MgCl2, 20 uM ZnCl2; 400 nM DNA, 0/200/400/800 nM Zas1; 90 min on ice; 1.8% agarose, Tris-acetate pH 8.7, 6 C. Conditions: protein: recombinant; chain copies: 2; label: 5' 6-FAM on strand 1; blunt. (In general: Mobility shift assays separate free from complexed probe on a gel.)

Consider 3 molecules from publication PMC6028546, “Control of mitotic chromosome condensation by the fission yeast transcription factor Zas1”.

Broadly, the stoichiometry N is a count of units in the complex or per binding partner. Turning to “Zas1 (recombinant, from the short zas1 cDNA ORF) (natural protein)”, the stoichiometry N in series [1] is 2.

B1: Ppob1 (dsDNA)
DNA 1: AAAGCCCCCACGAAGGTCGTCTTTCCCCACATAGATTATT
DNA 2: AATAATCTATGTGGGGAAAGACGACCTTCGTGGGGGCTTT
For the molecule B1, the binding result in series [2] was “binds”.

B2: Pcnd1 (dsDNA)
DNA 1: AATGGACCCCCACACAGGACATATAGGTGGGGTTATTGT
DNA 2: ACAATAACCCCACCTATATGTCCTGTGTGGGGGTCCATT
As for B2, in series [2], the binding result is recorded as “binds”.
